Measurements as given in US20240043563A1 (SHANGHAI MABGEEK BIOTECH, published 2024).
Residue numbers refer to the chain shown, from its start.

B1: humanized anti-human MASP-2 monoclonal antibody 124-Hu (antibody, human IgG4 S228P, kappa, V domains shown)
VH: QVQLQESGPGLVKPSQTLSLTCTVSGYSITSDYAWNWIRQPPGKGLEWMGYISYSGRTSYNPSLKSRLTISRDTSKNQFSLKLSSVTAADTAVYYCARHYGDFWGQGTTVTVSS
VL: DIQMTQSPSSLSASVGDRVTITCKASQNVDTNVAWYQQKPGKAPKLLIYSASYRYSGVPSRFSGSGSGTDFTLTISSLQPEDFATYYCQQYNSYPSTFGQGTKLEIKR
B2: humanized anti-human MASP-2 monoclonal antibody 126-Hu (antibody, human IgG4 S228P, kappa, V domains shown)
VH: QVQLVESGGGVVQPGRSLRLSCAASGFTFSSFGMHWVRQAPGKGLEWVAYISSGSSSSFYVDTVKGRFTISRDNSKNTLYLQMNSLRAEDTAVYYCARGDRNFEVWGQGTTVTVSS
VL: DIQMTQSPSSLSASVGDRVTITCRASQSVSSSRYSYMHWFQQKPGKAPKLLIYHASNLESGVPSRFSGSGSGTDFTLTISSLQPEDFATYYCQQSWEVPWTFGQGTKLEIKR
B3: murine anti-human MASP-2 monoclonal antibody 115 (antibody, V domains shown)
VH: DVQLVESGGGLVQPGGSRKLSCAASGFTFSSFGMHWVRQAPEKGLEWVAYISSGSSSFFYADTVKGRFTISRDNPKNTLFLQMTSLRSEDTAMYYCARGDRNFDVWGAGTTVTVSS
VL: DIVLTQSPASLAVSLGQRATISCRASQSVTSSRYSYMHWFQQKPGQPPNLLIKHASNLESGVPARFSGSGSGTDFTLNIHPVEEDDTATYYCQHSWEVPWTFGGGTKLEIK
B4: murine anti-human MASP-2 monoclonal antibody 126 (antibody, V domains shown)
VH: B3 VH with A23V, F58S, A61V, D104E
VL: B3 VL with T30S, D85E, H94Q
B5: murine anti-human MASP-2 monoclonal antibody 60 (antibody, V domains shown)
VH: QVQLQQSGAELMKPGASVKISCKATGYPFSTYWIEWVKQRPGHGLEWIGEILPGSDNTNYNEKFKGKATFTADTSSNTAYMQLSSLTSEDSAVYYCARRTTATRAWFVYWGQGTLVTVSA
VL: DIVMSQSPSSLAVSVGEKVTMSCKSSQSLLYSSNQKNYLAWYQQKPGQSPKLLIYWASTRESGVPDRFTGSGSGTDFTLTISSVRAEDLAVYYCQHYYTYPWTFGGGTNLEIK
notes: Murine monoclonal antibody purified from hybridoma by Protein G
B6: murine anti-human MASP-2 monoclonal antibody 120 (antibody, V domains shown)
VH: DVQLQESGPGLVKPSQSLSLTCTVTGYSITSDYAWSWIRQFLRNKLEWMGYISYSGRTSYNPSLKSRISITRDTSKNQFFLQLNSVTTEDTATYFCARLITGGDYWGQGTSVTVSS
VL: DIVMTQSQKFMSTSVGDRVSVTCKASQNVGINVVWYQQKPGQSPKALIYSASYRFSGVPDRFTGSGSGTDFTLTISNVQSEDLAEYLCLQYDINPLTFGAGTKLELK
notes: as for B5
B7: murine anti-human MASP-2 monoclonal antibody 124 (antibody, V domains shown)
VH: DVQLQESGPGLVKPSQSLSLTCTVTGYSITSDYAWNWIRQFPGNKLEWMGYISYSGRTSYNPSLKSRLSITRDTSKNQFFLQLTSVTTEDTATYYCARHYGDFWGQGTTLTVSS
VL: DIVMTQSQKFMSTSVGDRVSVTCKASQNVDTNVAWFQQKPGQSPKPLIYSASYRYSGVPDRFTGSGSGTDFTLTISNVQSEDLANYFCQQYNSYPSTFGSGTKLEIK
notes: as for B5
B8: murine anti-human MASP-2 monoclonal antibody 136 (antibody, V domains shown)
VH: QVQLQQSGAELAKPGASVKMSCKASGNTFTNYWMHWIKQRPGQGLEWVGYINPNTGYTDFNQKFKDKATLTADKSSTTAYMQLISLTSEDSTVYYCTLQLGRNFDYWGQGTTLTVSS
VL: DIVLTQSPASLGVSLGQRATISCRASQSVSSSRSTYIHWYQQKPGQPPKLLIKYSSNLESGVPARFSGGGSGTDFTLNIHPVEAEDTATYYCHQSWEIPYTFGGGTKLEIR
B9: murine anti-human MASP-2 monoclonal antibody 100 (antibody, V domains shown)
VH: DVQLVESGGGLVQPGGSRKLSCAASGFTFSNFGIHWVRQAPEKGLEWVAYISSGGSAVFYADTVKGRFTISRDNSKNTLFLQMTSLRSEDTAIYYCAKSDRYFDYWGQGTTLTVSS
VL: B3 VL with T30S, R33S, S35R, M37I, F40Y, N49R, H54Y, D85E, V98T
B10: humanized anti-human MASP-2 monoclonal antibody 136-Hu (antibody, human IgG4 S228P, kappa, V domains shown)
VH: QVQLVQSGAEVKKPGASVKVSCKASGNTFTNYWMHWIRQAPGQGLEWMGYINPNTGYTDFNQKFKDRVTLTADKSTSTAYMELSSLRSEDTAVYYCTLQLGRNFDYWGQGTTVTVSS
VL: B2 VL with Y34S, S35T, M37I, F40Y, H54Y, A55S, Q93H, V98I, W100Y
B11: humanized anti-human MASP-2 monoclonal antibody 100-Hu (antibody, human IgG4 S228P, kappa, V domains shown)
VH: B9 VH with D1Q, L11V, R18L, K19R, E42G, F80Y, T84N, S88A, I93V, L112V
VL: EIVLTQSPATLSLSPGERATLSCRASQSVSSSSYRYIHWYQQKPGQAPRLLIYYASNLESGIPARFSGSGSGTDFTLTISSLEPEDFAVYYCQHSWETPWTFGQGTKLEIKR

target: cynomolgus monkey MASP-2 of cynomolgus monkey serum (cynomolgus monkey); assay: cell-based or functional assay

IC50 of inhibition of MASP-2-catalyzed C4 cleavage in 90% cynomolgus monkey serum [nM]	Binder
168	B1

target: T1, human MASP-2 of human serum (human, UniProt O00187 16-686); assay: cell-based or functional assay
T1 sequence (O00187 16-686 limits assumed): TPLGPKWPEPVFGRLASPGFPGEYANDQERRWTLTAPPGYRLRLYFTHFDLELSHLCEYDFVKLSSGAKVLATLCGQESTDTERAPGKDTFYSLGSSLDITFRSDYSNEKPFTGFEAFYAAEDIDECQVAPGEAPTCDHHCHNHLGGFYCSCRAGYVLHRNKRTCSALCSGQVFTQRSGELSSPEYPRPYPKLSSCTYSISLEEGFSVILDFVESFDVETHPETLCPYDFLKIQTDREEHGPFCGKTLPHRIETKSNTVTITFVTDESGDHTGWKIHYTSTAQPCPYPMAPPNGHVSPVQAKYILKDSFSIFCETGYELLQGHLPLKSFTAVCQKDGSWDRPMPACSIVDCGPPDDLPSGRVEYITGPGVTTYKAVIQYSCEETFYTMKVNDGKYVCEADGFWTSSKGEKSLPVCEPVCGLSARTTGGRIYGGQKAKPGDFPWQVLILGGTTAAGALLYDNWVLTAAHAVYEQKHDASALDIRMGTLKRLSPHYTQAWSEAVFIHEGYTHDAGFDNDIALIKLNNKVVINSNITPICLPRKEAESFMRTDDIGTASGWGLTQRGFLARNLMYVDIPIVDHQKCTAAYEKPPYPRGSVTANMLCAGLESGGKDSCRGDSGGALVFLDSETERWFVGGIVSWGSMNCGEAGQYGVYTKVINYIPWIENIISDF

IC50 of inhibition of MASP-2-catalyzed C4 cleavage in 90% human serum [nM]	IC50 of inhibition of MASP-2-mediated C3b production (4% C1q-removed human serum) [nM]	Binder
3.46	0.494	B2
3.75	1.14	B1

target: T1, human MASP-2 of human serum; assay: cell-based or functional assay; remark: another data set of the same source

IC50 of inhibition of MASP-2-catalyzed C4 cleavage (4% human serum, C4b ELISA) [nM]	Binder
0.0826	B3
0.0774	B4
0.161	B5
0.275	B6
0.15	B7
0.0757	B8
0.238	B9

target: Fc-cyno-MASP-2-CCS (human; cynomolgus monkey, UniProt P01857 119-329 = IgG part); assay: ELISA, plate coated with 1 ug/mL Fc-cyno-MASP-2-CCS
Experimental: The titer was tested by ELISA: an ELISA plate was coated with the Fc-hMASP-2A-CCS or Fc-hMASP-2-CCS antigen at a concentration of 1 μg/mL, 100 μL per well, and coated overnight at 4° C. The plate was washed twice with PBST (PBS containing 0.5% Tween-20) and then pat-dried. Each well was blocked with 200 μL of coating solution containing 1% BSA, blocked at room temperature for 4 hours, pat-dried, and stored in a refrigerator at −20° C. for use. During testing, 100 μL of mouse serum at different concentrations was added to each well of the ELISA plate, with two replicate wells for each concentration, and the plate was incubated at room temperature for 1.5 hours. The plate was washed three times with PBST and then pat-dried. 100 μL of HRP-labeled rabbit anti-mouse Ig antibody (purchased from Sigma) diluted with PBST by 1:10000 was added, and the plate was incubated at room temperature for 1 hour. The plate was washed three times with PBST and then pat-dried. 100 μL of chromogenic solution was added to each well (ELISA chromogenic solution A was mixed with chromogenic solution B at a volume ratio of 1:1 before use) for a chromogenic reaction, and then 100 μL of 2 M H₂SO₄ stopping solution was added to each well to terminate the reaction. The OD value of each well was immediately measured at 450 nm with a microplate reader (Molecular Device).
Murine anti-human MASP-2 monoclonal antibodies were purified by a Protein G affinity chromatography column, and then quantified by BCA method. The EC50 of anti-human MASP-2 monoclonal antibody binding to Fc-hMASP-2A-CCS or Fc-cyno-MASP-2-CCS was tested by ELISA. The testing method can refer to Example 2. A 96-well ELISA plate was coated with 1 μg/mL of Fc-hMASP-2A-CCS or Fc-cyno-MASP-2-CCS, and then added with murine anti-human MASP-2 monoclonal antibodies at different concentrations for testing.

EC50 [nM]	Binder
0.096	B5
0.16	B6
0.179	B7

target: T1, human MASP-2 of human serum; assay: cell-based or functional assay; remark: another data set of the same source

C4 cleavage IC50 (4% human serum) [nM]	Binder
0.0598	B2
0.311	B10
0.214	B1
0.281	B11
